For this series, the target named is T1, TipR (Caulobacter crescentus NA1000) (UniProt A0A0H3C6G9).
T1 sequence: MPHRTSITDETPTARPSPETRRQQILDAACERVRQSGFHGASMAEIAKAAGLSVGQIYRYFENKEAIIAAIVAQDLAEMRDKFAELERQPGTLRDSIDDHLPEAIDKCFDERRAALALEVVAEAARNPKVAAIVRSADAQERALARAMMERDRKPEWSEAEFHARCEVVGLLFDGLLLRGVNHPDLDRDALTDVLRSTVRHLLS
Put plainly: EMSA. The following applies: EMSA: 40 mM Tris-HCl pH 7.6, 60 mM KCl, 0.1% glycerol, 240 ug calf DNA, 800 ug BSA, 100-200 ng probe, 30 min room temperature; 4% native TBE acrylamide gel.

Consider “GGCGGCGAGTCCCACGGTCGTCGCCGCGACCGAGCGTTGGAAATGCATGTTTGACCCCGGGAGGCGAGGGTCGCGCGGGCTCTTACCCTTGACGCGGCCACTATGATGAACGATTTGAGAATGAACGTTCATTCTCATGTGGGCTGGACATAAGAGCTGGAGTGTCGCAAGTCAACCTCCGGCGCCGCGCGTTTGGCTGACCTAACGGAAATGTAATGCCGCACAGGACTTC (double strand) [PacrA]”, for which the binding entry was “binds”.

The values are drawn from publication PMC10754441.
